Tests used:
[1] = tested on: MS2 coat protein; experiment: apparent KD of MS2 coat protein, switch ON state; designed switch direction (-1 OFF switch, 1 ON switch): -1; higher = weaker reporter binding; details: FMN input: 0 or 200 uM; Eterna round: R93 (includes R88 designs)
Method in brief: (§1)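 Illumina sequencing clusters were used for on-chip transcription of designed RNA switches. Titration with SNAP-549-labelled MS2 coat protein followed, in twofold steps from 0.7 or 1.5 nM to 3 µM in 100 mM Tris-HCl pH 7.5, 80 mM KCl, 4 mM MgCl2, without or with constant ligand. Apparent KD is each design's median of fits to normalised cluster binding curves.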

[2] = tested on: MS2 coat protein; experiment: apparent KD of MS2 coat protein, switch OFF state (with FMN for OFF switches, without FMN for ON switches); designed switch direction (-1 OFF switch, 1 ON switch): -1; higher = weaker reporter binding; details: FMN input: 0 or 200 uM; Eterna round: R93 (includes R88 designs)
Method in brief: as §1

Sequence | apparent KD of MS2 coat protein [1] [nM] | apparent KD of MS2 coat protein [2] [nM]
AGAGAGUCAGGAUAUACGAAAGAAAAGGGAAACAACAAGGGACAUGAGGAUCACCCAUGUAGAAGGGACGAGAA [Diamond 99] | 99.8 | 49.8
AGAGGACAUGAGGAUCACCCAUGUGAGGAUAUGCAAAACUAAGGACAAGAUCGGUAUAGCAGAAGGCACGUAGU [JR_EXc001_Sub808] | 46.7 | 78.2
AGCAAGUGAGGAUAUGCGAAGUCAGGACACACACUGACGAAGCAGAAGGCACAUGAGGAUCACCCAUGUAAGCA [JR_Exclusion-4 65% 1] | 33.1 | 27.1
AGCAUGUGAGGAUAUGUGACCCUCGUCCUAAGGAUGAGGAAAUAGAAGGCACAUGAGGAUCACCCAUGUGAUGA [Eratusar] | 65.4 | 293
AGCUAACAUGAGGAUCACCCAUGUCAGGAUAUGCAAAGAUCGAUCGAACGAUCGAUAAGCAGAAGGGACACUGA [Amethyst 94] | 27.1 | 47.5
AGCUAGACAGGAUAUACGAACAUGUCAAAAGACGUAAGGGAACAUGAGGAUCACCCAUGUAGAAGGGUCUAGCA [Diamond 50] | 28.5 | 63.9
AGCUAGUCAGGAUAUACAAACAUGUCAAAAGACGUGAAGAAACAUGAGGAUCACCCAUGUAGAAGGGACUAGCA [Mat - Exclusion 2 - JL mod - D16] | 19.9 | 14.5
AGCUAGUCAGGAUAUACAAACAUGUCGAAAGACGUGAAGGGACAUGAGGAUCACCCAUGUAGAAGGGACUAGCA [Mod of Janderson's WEB Mod v.2] | 50 | 273
AGCUAGUCAGGAUAUACGAACAGCUCAAAAGAGCUGAAGGGACAUGAGGAUCACCCAUGUAGAAGGGACUAGCA [Mat - Exclusion 2 - JL mod - D27] | 24.5 | 89.6
AGCUAGUCAGGAUAUACGAACAUGACAAAAGACGUGAAGGGACAUGAGGAUCACCCAUGUAGAAGGGACUAGCA [74%, Web mod - With 1 less U's] | 38.7 | 89.7
AGCUAGUGAGGAUAUACGAACAAGUAAACGGACUGUAAGGGACAUGAGGAUCACCCAUGUAGAAGGCACUAGCA [Diamond 59] | 28.6 | 74.5
AGCUAGUGAGGAUAUACGAACACGUAACAGGACUGUAAGGGACAUGAGGAUCACCCAUGUAGAAGGCACUAGCA [Diamond 61] | 33.9 | 77
AGCUAGUGAGGAUAUGCGAACAUGUCAAAAGACGUGAAGGGACAUGAGGAUCACCCAUGUAGAAGGCGCUAGCA [JL 74% mod 2] | 33 | 32.7
AGGAGACAUGAGGAUCACCCAUGUUAGGAUAUGAACGAAAAUAAAUAAAAAUAAAAGUUCAGAAGGAACGAAAA [66%, Wbt, 9] | 45.1 | 45.2
AGGAUGUCAGGAUAUGUGUAAAGAAUAAAACAAAUAACAACACAGAAGGGACAUGAGGAUCACCCAUGUUAAGA [May 44] | 36.8 | 55.7
AGGGAACAUGAGGAUCACCCAUGUGAGGAUAUUGAAAAGAAAAGAAAAGAAAGAAGAACAAGAAGGUACAAGAA [Meryre Pepi I] | 21.8 | 24.8
AGUAGAUCAGGAUAUACGUGAAAGGUCAAAGUGUCACUUCUACAUGAGGAUCACCCAUGUAGAAGGGAUCUACA [Ex2 Design 122: Not so Super Stable 9] | 12.9 | 12.4
AGUAGUACAGGAUAUACAUGAGGAUCACCCAUGUGAAAAGAAAGUGGCGUACCACAAAGUAGAAGGGUACUACA [Mat - Exclusion 3 - JL mod - D34] | 33.7 | 152
AGUGAGUGAGGAUAUCACUGAAGAAUAAAAGAAAUAACGAGUGAGAAGGCACAUGAGGAUCACCCAUGUACACA [May 63] | 24.1 | 18.3
AGUUGGCGAGGAUAUACAUGAGGAUCACCCAUGUGAAAUAAAUAAAAAAUAAAAGGGAGUAGAAGGCGCUGACA [73%, Moding Norbert Elias, 17] | 43.6 | 82.3
AGUUGGCGAGGAUAUACAUGAGGAUCACCCAUGUGAAAUCGCGAAGAAAUAGGGAAAAGUAGAAGGCGCUGACA [Ruby 61] | 11.6 | 19.9
AGUUGGCGAGGAUAUACAUGAGGAUCACCCAUGUGAGAGAAAAAAAGAAGAAAAAAAAGUAGAAGGCGCUGACA [Mat - Exclusion 3 - Lego mod - D43] | 44.2 | 103

Sequence | apparent KD of MS2 coat protein [1] [nM] | apparent KD of MS2 coat protein [2] [nM]
AUAAACUGAGGAUAUACAUGAGGAUCACCCAUGUAAAAAAAGAAAUGAUCCUCAGGAAGUAGAAGGCAGAAUAA [JR_Exc003_Sub017] | 13.2 | 28.3
AUAAAGAGAGGAUAUACAUGAGGAUCACCCAUGUAAGAAAUAAAAUAAAUAAAGGGAAGUAGAAGGCUCAAAUA [Denovo 2] | 28 | 42.5
AUAAAGUGAGGAUAUGUAAAAAUAACGAAAGUUAUAAAUAAACAGAAGGCACAUGAGGAUCACCCAUGUGAAAU [Meechl MS2 EX4 62% 2] | 24.2 | 22.5
AUCAUGUCAGGAUAUCAGUAGUAAAAAAAAAAAAUUACUACUGAGAAGGGACAUGAGGAUCACCCAUGUCCAAA [EX4 306: Super Stable 6] | 32.1 | 46.2
CAGGUACGAGGAUAUACAUAGAUACAGACACAUGUUCAAGUACAUGAGGAUCACCCAUGUAGAAGGCGUAUAUG [Mat - Same state - Mayanna Mod - D108] | 47.6 | 88.5
CAGUACUGAGGAUAUACAUGAGGAUCACCCAUGUAUCCAAGCUAGGAAACUAGCACAUGUAGAAGGCAGUACUG [Ex3: 822] | 294 | 34.5
CAGUACUGAGGAUAUACAUGAGGAUCACCCAUGUGAUCAAGCUACGAAAGUAGCAAAAGUAGAAGGCAGUACUG [Ex3: 810] | 277 | 56.7
CCGAGACAUGAGGAUCACCCAUGUGAGGAUAUAGGUGUAUGCAAAAAAAAGUUAAAAACUAGAAGGCACAGAGG [JR_Exc001_Sub307] | 37 | 30.9
CCUGAACAUGAGGAUCACCCAUGUGAGGAUAUGAUGCGAAUAAAGAAAGAAGAAAGCAUCAGAAGGCACAUAGG [Mod of Disincluded 3 v.4] | 28 | 43.4
CGCAAACAUGAGGAUCACCCAUGUGAGGAUAUGUGAGCACGAGAAAGAUAAAGUGAGCACAGAAGGCACAAGCG [JR_Exclusion1_Sub6] | 34.8 | 27.3
CGGGAGUCAGGAUAUACGAACAUGUCGCCAGAUGUCAAGGUACAUGAGGAUCACCCAUGUAGAAGGGAGGAGAG [salish99-Ex2-34] | 80.8 | 65
CUAGUACAUGAGGAUCACCCAUGUCAGGAUAUUGGAUAUGCCAUGGAAAACAUGUUUACAAGAAGGGACUAUAG [EX1 Malc#22] | 32.9 | 36.4
CUCAAGUAAGGAUAUGCAAGAAAAGAAGAGAAAGAAAAGAAGCAGAAGGUACAUGAGGAUCACCCAUGUAAGAA [EteRNA is fun!] | 37.3 | 35.8
CUCAAGUUAGGAUAUAGAAGAAAAGAAGAGAAAGAAAAGAACUAGAAGGAACAUGAGGAUCACCCAUGUAAGAA [EteRNA is fun!] | 31.2 | 20.5
CUCUAGUCAGGAUAUACAAGAAAAGAAGAGAAAGAAAAGAAGUAGAAGGGACAUGAGGAUCACCCAUGUAAGAA [EteRNA is fun!] | 50.9 | 48.2
CUCUAGUGAGGAUAUACAAGAAAAGAAAAGAAAGAAAAGAAGUAGAAGGCACAUGAGGAUCACCCAUGUAAGAA [EteRNA is fun!] | 24.8 | 30.2
CUCUAGUUAGGAUAUGGAAGAAAAGAAAAGAAAGAAAAGAACCAGAAGGAACAUGAGGAUCACCCAUGUAAGAA [EteRNA is fun!] | 45.5 | 34
CUUAUGUCAGGAUAUCAGUAGUAAAAAAAUAAAAUUACUACUGAGAAGGGACAUGAGGAUCACCCAUGUCAAAA [EX4 365: Super Stable 65] | 164 | 97.2
GAAAAACAUGAGGAUCACCCAUGUAAGGAUAUGCUAAAAAACACGGAAAAACGUGAUAGCAGAAGGUACAAAAG [Mat - Exclusion 1 - Eli mod - D88] | 19.8 | 44
GAAAAACAUGAGGAUCACCCAUGUCAGGAUAUCCAAAUAAAAAUAAAAUAAAAUAAAAGGAGAAGGGACAAAAG [Mat - Same state - Mayanna Mod - D101] | 42.4 | 40
GAAAAGGUAGGAUAUACGAAAAAAAAGGGUAAAAAAUAAAAACAUGAGGAUCACCCAUGUAGAAGGACCAAAAG [Mat - Exclusion 2 - Tesla mod - D40] | 28.8 | 55.3
GAAAAGUCAGGAUAUGCAGACAAAGCAAAAAAGCAAUGUCUGCAGAAGGGACAUGAGGAUCACCCAUGUAAAAG [Mat - Exclusion 4 - Mayanna - D116] | 61.1 | 70.1

— the supplement of paper PMC9170038
